B1: Aa11 VHH (VHH)
VHH: QVQLVESGGGLVQAGGSLRLSCAASGRTFSSYAMGWFRQAPGKEREFVAAISWSGGSTYYADSVKGRFTISRDDARNTVTLLMNSLKPEDTAVYFCNAWSLEEQYWGQGTQVTVSS
B2: Aa8 VHH (VHH)
VHH: AVQLVESGGGLVQAGDSLRLSCTLSGGTFRHYAMSWFRQAPGKERVFVARIDYDGAMKYYADSVKGRFTISRDNAKNTMYLQMNSLKPEDTAVYYCNAHWDYGLGPEWDYWGQGTLVTVSS
B3: A21 VHH (VHH)
VHH: QVQLVESGGGVVQAGGSLRLSCVASGFTIDDYPVAWFRQAPGKEREAVSCIGNRGGTTYYADSVKGRFSISRDDAKDTVYLQMNNLKSEDTAVYYCVKDLGSVGPGAEYDYWGQGTLVTVSS
B4: A23 VHH (VHH)
VHH: AVQLVESGGGAVSPGGSLKLSCTASGLAFNGGAMGSEHRLTAGAMGWFRQAPGKDREFVAAIHPRTNDTYYSGTLEDRFTISIDDAKMTVYLQADSLRLEDTAVYSCAADEDVTPRGMGVIPYAEYWGQGTQVTVSS
B5: Aa6 VHH (VHH)
VHH: AVQLVESGGGLVASGGSLRLSCAASDFKFSDYWMHWIRQAPGKEREFVASIGWNGEITDYEESIEGRFAISRDNNKYTLYLEMRDLIPEDTGLYYCAASSDYRWSRQPFEFENWGQGTQVTVSS
B6: A26 VHH (VHH)
VHH: DVQLVESGGGLVQPGGSLRLSCVVSGLTSTEYAIGWFRQAPGKEREGVACLVVSGHNSGRTHYSAAVKGRFTVSQDDATNTAILHMDNLQPKDTAVYYCAAEVSSGQPAVTTFWEDMYDYWGQGTQVTVSS
B7: A19 VHH (VHH)
VHH: EVQLVESGGGLVQPGGSLRLSCAASGFTFSGSAMSWVRQTPGKGLEWVSFISRSGSVTEYADSVKGRFTIARDNAPNTVYLQMNSLKPEDTAVYYCTADSYVDYEDDRLKWHHSWGQGTQVTVSS
B8: Aa1 VHH (VHH)
VHH: AVQLVDSGGGTLQAGKSLRLSCAISGLAFDGGAMGSEHRLTAGAMGWFRQAPGKDREFVAAISPRTDETYYAESLEGRFSVSRDAAATMVFLEADNVRLDDTASYYCAADEDVTPRVMGVIPHADHWGQGTLVTVSS
B9: Aa9 VHH (VHH)
VHH: QVQLVESGGGMVQPGGSLRLSCKGSGSVFMFYDMGWYRQAPGNQRELVAVMGPGGNTNYADAVKGRFTVARNIDEDTVSLLMTNLEPEDTAVYYCAADFDTPWGASGRYDYWGQGTQVTVSS

Tests used:
[1] = target: T1, BoNT/A Lc448, truncated botulinum neurotoxin serotype A light chain containing residues 1-448 (Clostridium botulinum, UniProt P0DPI0 1-448); experiment: flow cytometry, yeast-displayed VHH titrated with soluble BoNT/A Lc448
T1 construct: range 1-448

[2] = target: T1, BoNT/A Lc448, truncated botulinum …
[3] = target: T1, BoNT/A Lc448, truncated botulinum …; experiment: KinExA; calculated as KD × kon
[4] = target: T1, BoNT/A Lc448, truncated botulinum …; experiment: KinExA flow fluorimetry, solution kinetics, purified Aa1 VHH and BoNT/A Lc448
[5] = target: T1, BoNT/A Lc448, truncated botulinum …; experiment: KinExA flow fluorimetry, solution equilibrium, purified Aa1 VHH and BoNT/A Lc448

T1 sequence (P0DPI0 1-448 limits assumed): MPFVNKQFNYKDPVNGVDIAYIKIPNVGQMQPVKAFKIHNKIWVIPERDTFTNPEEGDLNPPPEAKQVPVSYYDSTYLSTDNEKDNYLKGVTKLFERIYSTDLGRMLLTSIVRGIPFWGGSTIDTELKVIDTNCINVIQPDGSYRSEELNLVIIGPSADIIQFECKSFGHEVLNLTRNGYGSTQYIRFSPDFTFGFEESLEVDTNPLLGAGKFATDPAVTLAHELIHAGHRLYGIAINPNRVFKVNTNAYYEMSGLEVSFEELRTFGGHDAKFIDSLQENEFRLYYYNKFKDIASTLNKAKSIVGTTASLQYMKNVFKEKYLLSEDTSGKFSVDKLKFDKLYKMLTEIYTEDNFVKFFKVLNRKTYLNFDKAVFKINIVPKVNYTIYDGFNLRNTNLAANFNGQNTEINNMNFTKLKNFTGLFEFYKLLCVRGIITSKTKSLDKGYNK

Binder	Kd [1] [nM]	also measured
B1	76.1	
B2	112	
B3	60.7	
B4	16.9	
B5	0.52	
B6	8.7	
B7	4.65	
B8	0.03	IC50 (read off the curve) [2]: ~0.1 nM; koff [3]: 0.00666 s⁻¹; kon [4]: 4.39e+07 M⁻¹ s⁻¹; Kd [5]: 0.147 nM
B9	4.08	
